Experimental data from US20220378949A1, “NEUROTROPHIN RECEPTOR BINDING CONJUGATE COMPOSITIONS, METHODS OF USE AND METHODS OF MAKING THEREOF” (priority 2019, published 2022).

Legend:
[1] = test system: superior cervical ganglia (SCG) neurons; assay: Retrograde axonal transport of 800-rhNGF in Xona microfluidic chambers, LI-COR Odyssey imaging; assay type: cell-based, rat; conditions: 30 ng/mL at distal axons, 48 hours
From the text: (§1) Increasing conjugation leads to decreased protein conjugate solubility. A construct where the active agent has a greater molecular weight and less hydrophilic Dyomics DY-800 Near InfraRed (NIR) dye was attached directly to recombinant human NGF (rhNGF) (FIG. 2). In subsequent studies, we purified DAR sub-species using a (Waters column) reverse phase HPLC (RP-HPLC). […] Cultures were maintained until the axons extended through the channels in the microfluidic chambers to the side without cells plated. FIG. 2B depicts 800-rhNGF, 30 ng/mL was added to the wells where the terminal (distal) axons had extended. 48 hours after addition of 800-rhNGF to distal ends in left chambers, chambers were imaged on a LI-COR Odyssey scanner. […] FIGS. 2C and 2D depict brightfield images of wells containing cell bodies, showing improved visualization of cell clumps for comparison to images containing 800 NIR cell bodies. Neuronal Survival Confirms TrkB Binding Activity is Intact after Synthetic Manipulation.

[2] = Stability of rhNGF in plasma; assay type: in vitro ADME; conditions: 37° C.
From the text: As an example of an intracellularly active small molecule compound (SMC), the glucocorticoid fluocinolone acetonide (FA) was conjugated using a heterobifunctional linker to rhNGF and rhBDNF, both of which constructs exerted analgesic (anti-inflammatory) activity in vivo. Dorsal Root Ganglia (DRG) in diseases of the peripheral nervous system (PNS) play a fundamental role in chronic pain generally. NGF and BDNF localize due to their selectivity for distinct populations of peripheral neurons by binding to TrkA and TrkB expressed largely in nociceptors and proprioceptors, respectively. In treating forms of pain in which the DRG are involved, either NGF and/or BDNF should deliver intracellularly active FA by axonal transport to subpopulations of sensory neuron cell bodies in DRG and via their central synaptic terminals, into the dorsal horn of the spinal cord. Since TrkB is highly expressed in the neurofilament-1-expressing subpopulation of low-threshold mechanosensory neurons in the DRG, peripherally injected BDNF should deliver FA to the DRG. In treating pain, FA may alter neuronal excitability to be released or diffuse, acting on nearby inflammatory cells e.g. microglia, astrocytes, or satellite glia. rhNGF is stable in plasma for up to 4 days at 37° C.

[3] = administered sub-cutaneously (SQ); cited from earlier work
TrkA receptors = target: T1, TrkA receptors (Rattus norvegicus, UniProt P35739); assay: Uptake and retrograde transport of fluorescent NGF in compartmented cultures of SCG neurons, competition with unlabelled NGF; assay type: cell-based; conditions: for Uptake of fluorescent NGF at distal ends of neurons (TrkA-mediated endocytosis): distal axon compartments, SCG neurons
T1 construct: In vitro systems that use primary neurons express Trk receptors on distal ends were used; endogenous in cells
Protocol: Confirm Trk receptor binding. […] Receptor binding activity where up to 100× unmodified mNGF is co-administered with the Trk binding agent was determined. 488-mNGF (FIG. 1A) is shown in cell bodies, after binding to TrkA, endocytosis and transport to the central chamber of the in vitro system. In FIG. 1B, TrkA was confirmed here by adding 1000 ng/ml unmodified mNGF to compete with 100 ng/ml 488-mNGF for the same TrkA receptors. FIG. 1C: Neurons in compartmented cultures were given approximately 10 ng/mL fNGF (as determined by neuronal survival bioassay), or 10 ng/mL fNGF+100× excess unlabelled NFG (1000 ng/mL) in the distal axon compartments. 24 hours later fluorescence images of the cell bodies were obtained (FIG. 1C). […] Alexa Fluor requirement for DAR<4 per mouse NGF monomer. Fluorescent dye Alexa Fluor 488, which due to its size and hydrophobicity is attached to NGF without using a spacer of any length binds to TrkA, is endocytosed after binding, and is transported retrogradely to the neuronal cell body. In FIG. 4, we show in vitro results for a “mixed DAR” 800-rhNGF of 1.64 which is expressed as an average of 1-4 dye molecules per monomer using standard analytical methods mass spectroscopy (MS) or high performance liquid chromatography (HPLC), in each case where the NT involved is a dimer. […] Survival. […] SGC neurons were harvested from E-21 Sprague Dawley rat pups.

[4] = test system: superior cervical ganglia (SCG) neurons; assay: Neuronal survival assay in primary superior cervical ganglia neurons (compartmented cultures / microfluidic devices); assay type: cell-based, rat; conditions: FIG. 4 and FIG. 1C
Protocol: In vitro systems that use primary neurons express Trk receptors on distal ends were used so that both survival and Trk binding activity may be assessed following synthetic manipulation in producing conjugates.
Confirm Trk receptor binding. […] Receptor binding activity where up to 100× unmodified mNGF is co-administered with the Trk binding agent was determined. […] FIG. 1C: Neurons in compartmented cultures were given approximately 10 ng/mL fNGF (as determined by neuronal survival bioassay), or 10 ng/mL fNGF+100× excess unlabelled NFG (1000 ng/mL) in the distal axon compartments. 24 hours later fluorescence images of the cell bodies were obtained (FIG. 1C). […] Survival. […] SGC neurons were harvested from E-21 Sprague Dawley rat pups.
DAR analytics were calculated using Reverse Phase High Performance Liquid Chromatography (RP-HPLC) and/or mass spectroscopy (MS). […] (FIG. 5)

[5] = test system: Retinal Ganglion Cells (RGCs); assay: Neuronal survival of primary Retinal Ganglion Cells with labeled rhBDNF (TrkB binding intact); assay type: cell-based, rat
Protocol: Labeled BDNF test articles, either 800-rhBDNF or FA-rhBDNF, were also assessed to as to whether the compositions would sustain neuronal survival by plating conjugates in Retinal Ganglion Cells (RGCs). RGCs were isolated from P6 rats by sequential immune-panning. Retinas are isolated and enzymatically digested by papain followed by mechanical dissociation into a single-cell suspension. Cells are negatively panned to remove macrophages and other nonspecifically adhering cells and then positively panned for RGCs using the Thy1.1 T11D7 hybridoma supernatant.
as §1
High Performance Liquid Chromatography and mass spectrometry was used to quantify the number of dye molecules attached or crosslinked to rhBDNF (i.e., the ratio of fluorescent dye in the 800 region to rhBDNF).

[6] = average ratio of about 3.1 per monomer

T1 sequence (P35739 33-799): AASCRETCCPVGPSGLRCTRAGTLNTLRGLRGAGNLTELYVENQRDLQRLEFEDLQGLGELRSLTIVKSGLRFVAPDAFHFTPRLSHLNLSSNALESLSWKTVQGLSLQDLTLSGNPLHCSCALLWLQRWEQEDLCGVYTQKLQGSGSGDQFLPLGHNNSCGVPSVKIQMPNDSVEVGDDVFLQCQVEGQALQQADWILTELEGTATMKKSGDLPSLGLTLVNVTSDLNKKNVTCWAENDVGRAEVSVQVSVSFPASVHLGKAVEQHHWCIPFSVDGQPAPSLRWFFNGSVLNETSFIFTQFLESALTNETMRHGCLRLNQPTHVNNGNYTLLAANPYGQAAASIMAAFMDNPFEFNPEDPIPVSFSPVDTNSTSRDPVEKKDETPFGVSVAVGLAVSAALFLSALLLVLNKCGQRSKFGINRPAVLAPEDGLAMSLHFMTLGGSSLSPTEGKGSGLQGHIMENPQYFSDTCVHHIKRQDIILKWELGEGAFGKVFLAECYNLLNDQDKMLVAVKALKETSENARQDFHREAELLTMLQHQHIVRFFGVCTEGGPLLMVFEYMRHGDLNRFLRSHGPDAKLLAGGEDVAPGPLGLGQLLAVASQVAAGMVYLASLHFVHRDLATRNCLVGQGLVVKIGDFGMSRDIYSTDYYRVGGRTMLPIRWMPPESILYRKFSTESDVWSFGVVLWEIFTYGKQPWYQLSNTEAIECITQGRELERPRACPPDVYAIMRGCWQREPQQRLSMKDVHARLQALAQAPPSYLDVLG

For “800-rhNGF: Dyomics DY-800 Near InfraRed (NIR) dye attached directly to recombinant human NGF (rhNGF)”, the “Retrograde transport to cell bodies (800 NIR labelled cell bodies visualized)” value [1] was “retrogradedly transported”.

For “rhNGF: recombinant human NGF (nerve growth factor)”, the “Stability in plasma (time stable)” value [2] is given as “up to 4 days” and the “Maximum Tolerated Dose (MTD)” value [3] is given as 1 µg/kg.

B1: 488-mNGF: fluorescent dye Alexa Fluor 488 attached to murine NGF (conjugate, UniProt P01139 122-241, looked up)
Beta-nerve growth factor: SSTHPVFHMGEFSVCDSVSVWVGDKTTATDIKGKEVTVLAEVNINNSVFRQYFFETKCRASNPVESGCRGIDSKHWNSYCTTTHTFVKALTTDEKQAAWRFIRIDTACVCVLSRKATRRG
modifications: Alexa Fluor 488 dye
notes: fluorescent dye Alexa Fluor 488 attached to murine NGF
For B1, the “Accumulation of fluorescence in the cell bodies with 100× excess unlabelled NGF” value (TrkA receptors; 10 ng/mL fNGF + 1000 ng/mL unlabelled NGF in distal axon compartments, 24 hours) was “effectively inhibited”, the “Uptake of fluorescent NGF at distal ends of neurons (TrkA-mediated endocytosis)” value (TrkA receptors) was “endocytosed at the distal ends” and the “Uptake of fluorescent NGF at distal ends of neurons (TrkA-mediated endocytosis)” value (TrkA receptors; listed as fNGF) was “specific, TrkA receptor-mediated process”. The Survival of neurons [4] was “sustained the survival of neurons”.

B2: 800-rhBDNF: NIR dye in the 800 region directly attached to rhBDNF (conjugate, UniProt P23560 19-247, looked up)
Neurotrophic factor BDNF …: APMKEANIRGQGGLAYPGVRTHGTLESVNGPKAGSRGLTSLADTFEHVIEELLDEDQKVRPNEENNKDADLYTSRVMLSSQVPLEPPLLFLLEEYKNYLDAANMSMRVRRHSDPARRGELSVCDSISEWVTAADKKTAVDMSGGTVTVLEKVPVSKGQLKQYFYETKCNPMGYTKEGCRGIDKRHWNSQCRTTQSYVRALTMDSKKRIGWRFIRIDTSCVCTLTIKRGR
modifications: NIR 800 dye
notes: NIR dye in the 800 region directly attached to rhBDNF
In the case of B2, the “Neuronal survival in primary neurons of Retinal Ganglion Cells” value ([5]; FIG. 3) is reported as “sustained neuronal survival”, the Intraneuronal uptake [5, 6] is reported as “intraneuronal uptake” and the Trk binding [5, 6] is reported as “Trk binding”.
